Molecular target: T1, His-Spike RBD (40592-V08H) (SARS-CoV-2, UniProt P0DTC2 319-541)
T1 construct: source: bought: Sino Biological
Assay: SPR; Biacore T200, CM5 sensor chip; RBD fixed to the chip by amino coupling; CD147 flowed over; binding time 90 s, dissociation time 120 s
Conditions: both partners purified

B1: Human His-CD147 (receptor)
chain: GTVFTTVEDLGSKILLTCSLNDSATEVTGHRWLKGGVVLKEDALPGQKTEFKVDSDDQWGEYSCVFLPEPMGTANIQLHGPPRVKAVKSSEHINEGETAMLVCKSESVPPVTDWAWYKITDSEDKALMNGSESRFFVSSSQGRSELHIENLNMEADPGQYRCNGTSSKGSDQAIITLRVRSHLAAL
notes: CD147 (basigin), human; also called human CD147; hCD147
- Kd: 4.47 µM

Source: article PMC9691700, “CD147 contributes to SARS-CoV-2-induced pulmonary fibrosis” (Signal Transduction and Targeted Therapy, 2022)
